Measurements taken from PMC11735809, “Structural basis of Spliced Leader RNA recognition by the Trypanosoma brucei cap-binding complex” (Nature Communications, 2025).
Values belong to the compound of their own block, whether it stands above or below them.

Tests used:
[1] = tested on: TbCBP66* R348E (Trypanosoma brucei); assay: fluorescence polarization; conditions: EMSA: 20 mM HEPES pH 7.5, 50 mM NaCl, 5 mM MgCl2, Tween (0.05% in RNA buffer), RNA stock 50 nM mixed 1:1, 30 min on ice, 6% native PAGE 4 C; FP: same buffer, 0.
[2] = molecular target: T1, TbCBC-tetramer (TbCBP20-TbCBP110-TbCBP30-TbCBP66) (Trypanosoma brucei, UniProt Q585L4); assay: competition pull-down on immobilised γ-aminophenyl-m7GTP resin, SDS-PAGE; type: binding; conditions: pH 7.5, 200 mM NaCl, 5 mM MgCl2, 4 °C; competitive at the cap site
T1 construct: gene Tb06.28P18.1190; full-length subunits co-expressed in Hi5 insect cells (biGBac), HisTrap and heparin purified, tetramer 230 kDa
T1 sequence (Q585L4 1-187): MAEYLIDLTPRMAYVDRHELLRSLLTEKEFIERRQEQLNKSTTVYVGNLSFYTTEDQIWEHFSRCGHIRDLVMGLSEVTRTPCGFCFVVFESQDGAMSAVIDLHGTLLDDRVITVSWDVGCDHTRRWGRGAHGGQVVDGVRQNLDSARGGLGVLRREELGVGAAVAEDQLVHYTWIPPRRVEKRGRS
T1 sequence (Q38BU6 1-1004 partner): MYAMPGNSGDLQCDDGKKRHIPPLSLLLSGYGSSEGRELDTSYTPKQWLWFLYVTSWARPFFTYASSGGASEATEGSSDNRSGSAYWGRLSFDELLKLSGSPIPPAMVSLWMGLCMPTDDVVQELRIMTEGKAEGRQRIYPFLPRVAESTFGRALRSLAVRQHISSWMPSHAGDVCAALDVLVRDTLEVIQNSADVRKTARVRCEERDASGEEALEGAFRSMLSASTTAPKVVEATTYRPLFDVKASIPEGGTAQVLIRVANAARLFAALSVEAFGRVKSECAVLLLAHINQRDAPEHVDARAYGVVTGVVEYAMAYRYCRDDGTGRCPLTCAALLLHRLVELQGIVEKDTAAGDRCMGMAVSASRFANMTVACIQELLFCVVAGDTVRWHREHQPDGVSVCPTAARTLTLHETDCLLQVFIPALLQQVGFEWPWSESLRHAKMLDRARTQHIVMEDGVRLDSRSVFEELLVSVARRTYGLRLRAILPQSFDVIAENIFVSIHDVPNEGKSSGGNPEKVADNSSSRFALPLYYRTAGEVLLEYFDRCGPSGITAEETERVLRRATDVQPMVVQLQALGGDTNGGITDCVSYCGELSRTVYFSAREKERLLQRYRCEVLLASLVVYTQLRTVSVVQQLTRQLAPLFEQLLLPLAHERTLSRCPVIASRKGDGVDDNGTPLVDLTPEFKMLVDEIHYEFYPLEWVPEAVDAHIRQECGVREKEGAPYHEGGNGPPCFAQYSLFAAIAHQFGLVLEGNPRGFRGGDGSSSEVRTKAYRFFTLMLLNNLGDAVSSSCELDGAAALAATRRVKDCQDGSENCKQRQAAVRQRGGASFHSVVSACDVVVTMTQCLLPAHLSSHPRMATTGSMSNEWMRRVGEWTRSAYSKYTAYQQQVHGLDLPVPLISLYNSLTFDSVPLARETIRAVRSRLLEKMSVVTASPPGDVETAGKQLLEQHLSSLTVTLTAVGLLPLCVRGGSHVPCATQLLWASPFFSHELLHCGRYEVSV
T1 sequence (Q387Z0 1-270 partner): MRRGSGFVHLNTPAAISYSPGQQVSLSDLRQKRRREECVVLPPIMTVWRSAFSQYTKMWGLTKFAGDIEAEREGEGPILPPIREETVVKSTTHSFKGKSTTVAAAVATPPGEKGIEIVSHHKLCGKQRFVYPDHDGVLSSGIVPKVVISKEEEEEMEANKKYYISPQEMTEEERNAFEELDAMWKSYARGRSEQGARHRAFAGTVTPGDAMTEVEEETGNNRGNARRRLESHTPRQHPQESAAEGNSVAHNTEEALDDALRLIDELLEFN

[3] = molecular target: T1, TbCBC-tetramer (TbCBP20-TbCBP110-TbCBP30-TbCBP66); assay: cryo-EM structure, […] Å; type: binding; conditions: 2-fold excess of ligand; m7GMP part resolved in the TbCBP20 cap pocket
[4] = tested on: TbCBP66* (Trypanosoma brucei); assay: EMSA; conditions: EMSA: 20 mM HEPES pH 7.5, 50 mM NaCl, 5 mM MgCl2, Tween (0.05% in RNA buffer), RNA stock 50 nM mixed 1:1, 30 min on ice, 6% native PAGE 4 C; FP: same buffer, 0.
[5] = molecular target: TAMRA-labeled TbCBP30 peptide comprising residues R34-G60 (Trypanosoma brucei); assay: MST; 50 nM N-terminally TAMRA-labeled peptide mixed 1:1 with a serial dilution of TbCBC-dimer; 20 mM HEPES, 250 mM NaCl, 5 mM MgCl, 0.1 % Tween in the peptide buffer; 30 min on ice; Monolith NT.115; binding quantified from the ligand-dependent increase in the initial fluorescence; n = 3

Compound: AACUAACGCUAUUAUUAGAACAGUUUCUGUACUAUAUUG [OH-SLe 3'-6FAM (39 nt SL RNA exon, FP)]
Kd [1]: 9810 nM

Compound: C[n+]1cn([C@@H]2O[C@H](COP(=O)(O)OP(=O)(O)OP(=O)(O)O)[C@@H](O)[C@H]2O)c2nc(N)[nH]c(=O)c21 [m^7GTP]
competition pull-down on immobilised γ-aminophenyl-m7GTP resin, SDS-PAGE [2]: m^7GTP competed efficiently with cap4-SL RNA binding to TbCBC

Compound: C[n+]1cn([C@@H]2O[C@H](COP(=O)(O)OP(=O)(O)OP(=O)(O)OC[C@H]3O[C@@H](n4cnc5c(N)ncnc54)[C@H](O)[C@@H]3O)[C@@H](O)[C@H]2O)c2nc(N)[nH]c(=O)c21 [m^7GpppA]
cryo-EM structure, 2.4 Å [3]: The m^7GMP portion of the cap-analog is coordinated by TbCBP20

Compound: AUUAGAACAGUUUCUGUACUAUAUUG [SL-hairpin_loop (A14-G39)]
Kd [4]: 390 nM

Kd [5]: 980 nM
Compound: TbCBC-dimer (TbCBP20-TbCBP110 dimer) (complex)
